B1: library; numbered along this chain (parent)
chain: MATDAALRRLLRLHRTEIAVAVDSAFPLLHALADHDVVPEDKFQETLHLKEKEGCPQAFHALLSWLLTQDSTAILDFWRVLFKDYNLERYGRLQPILDSFPKDVDLSQPRKGRKPPAVPKALVPPPRLPTKRKASEEARAAAPAALTPRGTASPGSQLKAKPPKKPESSAEQQRLPLGNGIQTMSASVQRAVAMSSGDVPGARGAVEGILIQQVFESGGSKKCIQVGGEFYTPSKFEDSGSGKNKARSSSGPKPLVRAKGAQGAAPGGGEARLGQQGSVPAPLALPSDPQLHQKNEDECAVCRDGGELICCDGCPRAFHLACLSPPLREIPSGTWRCSSCLQATVQEVQPRAEEPRPQEPPVETPLPPGLRSAGEEVRGPPGEPLAGMDTTLVYKHLPAPPSAAPLPGLDSSALHPLLCVGPEGQQNLAPGARCGVCGDGTDVLRCTHCAAAFHWRCHFPAGTSRPGTGLRCRSCSGDVTPAPVEGVLAPSPARLAPGPAKDDTASHEPALHRDDLESLLSEHTFDGILQWAIQSMARPAAPFPS

Variants of: B1
Test: AIRE transcriptional activation functional score (insulin promoter-GFP; nonsense median 0, synonymous median 1) (normalised score); higher = higher AIRE activity (more reporter activation)
Details: with insulin promoter-GFP reporter in HEK293
Method in brief: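 Codon-optimized AIRE NNN-codon libraries (three regions) were integrated by Bxb1 recombinase into Flp-In T-REx HEK293 landing-pad cells carrying an insulin core promoter-GFP reporter. Integrants (mCherry+, BFP−) sorted at day 7 were expanded 7 days; top 10% GFP and unselected integrant populations were tile-sequenced. Functional score is select versus non-select variant enrichment, wild-type subtracted. Variants needed 10 counts per million in non-select; scores were rescaled to nonsense median 0 and synonymous median 1, then averaged over biological replicates.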

AIRE transcriptional activation functional score of substitutions, site by site:
P365: W 1.45 | K 1.17 | R 1.28 | C 1.05 | S 1.14 | T 0.843 | F 1.36 | E 1.33 | N 0.389 | G 0.47 | M 1.49 | V 0.952 | I 0.733 | H 0.594 | Y 1.75
V377: K 0.952 | R 1.09 | E 1.81 | D 0.248 | S 0.916 | M 0.944 | F 1.15 | W 1.82 | Q 0.854 | I 1.15 | P 1.28 | L 1.19 | N 1.2 | C 1.32 | A 0.734 | T 1.37 | G 1.16
L370: V 1.03 | K 0.92 | Q 0.241 | H 0.944 | S 1.32 | E -0.238 | C 1.12 | R 0.586 | D 0.434 | P 1.08 | G 1.08 | T 1.03 | W 0.504 | I 1.25 | A 0.668 | F 0.823
P360: F 1.2 | Q 0.786 | I 1.13 | D 0.792 | K 0.715 | M 1.19 | C 1.08 | T 0.775 | L 1.06 | H 1.1 | Y 1.2 | A 0.888 | R 1.02 | E 1.22 | S 0.994 | N 1 | W 1.38 | G 1.16 | V 0.911
P361: F 1.18 | H 1.14 | A 1.01 | M 1.3 | G 1.21 | D 1.15 | Y 1.13 | W 1.29 | Q 1.18 | L 1.07 | I 1.09 | S 1.21 | K 1.12 | T 1.12 | R 0.983 | C 1.27 | N 0.778 | E 0.976 | V 1.21
P367: M 0.302 | Y 1.39 | Q 1.26 | I 1.46 | C 1.47 | E 1.46 | N 0.956 | R 1.06 | A 0.781 | L 0.763 | D 0.924 | W 1.97 | G 0.153 | F 1.13 | S 1.13 | T 1.17 | V 0.854 | K 1.04
E376: R 1.12 | S 1.08 | A 0.899 | F 0.443 | P 1.25 | D 0.34 | V 1.24 | I 1.36 | N 1.32 | G 0.776 | T 0.984 | Y 0.702 | L 1.17 | W 1.23 | Q 1.62 | K 1.15 | H 1.36
E363: T 1.29 | W 1.59 | K 1.09 | L 1.29 | Y 1.28 | Q 0.775 | C 1.27 | R 1.21 | P 0.843 | F 1.34 | D 0.917 | G 1.02 | S 1.04 | N 1.09 | A 1.1 | M 1.7 | V 1.14 | H 1.19 | I 1.02
R371: D 1 | P 0.614 | G 1.55 | Y 1.39 | M -0.128 | S 0.653 | W 1.77 | V 1.27 | I 0.173 | L 1.5 | T 0.753
P368: D 0.975 | G 1.05 | S 1.27 | H 1.18 | K 1.38 | C 1.55 | L 1.01 | F 1.63 | V 1.13 | E 0.965 | T 0.983 | N 1.58 | Q 0.776 | A 1.2 | R 1.04 | I 1.29
